# US20210260212A1 (MAGENTA THERAPEUTICS, published 2021)
# B1: anti-CD2-amanitin ADC: RPA 2.10 conjugated to amanitin with a cleavable linker, interchain, average drug-to-antibody ratio of 6 (other)
# heavy: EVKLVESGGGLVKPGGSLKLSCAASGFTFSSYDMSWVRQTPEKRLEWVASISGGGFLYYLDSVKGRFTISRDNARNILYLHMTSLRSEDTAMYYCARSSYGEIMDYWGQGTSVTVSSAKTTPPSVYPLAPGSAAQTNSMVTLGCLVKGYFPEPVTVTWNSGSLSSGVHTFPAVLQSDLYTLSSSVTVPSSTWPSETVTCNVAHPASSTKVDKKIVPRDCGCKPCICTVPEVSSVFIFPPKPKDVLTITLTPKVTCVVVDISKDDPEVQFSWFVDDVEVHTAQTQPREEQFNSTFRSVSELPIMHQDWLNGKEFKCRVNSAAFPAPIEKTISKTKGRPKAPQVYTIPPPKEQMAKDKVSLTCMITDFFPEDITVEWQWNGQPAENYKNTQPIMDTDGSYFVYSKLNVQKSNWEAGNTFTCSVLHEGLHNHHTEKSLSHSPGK
# light: DILLTQSPAILSVSPGERVSFSCRASQRIGTSIHWYQQRTTGSPRLLIKYASESISGIPSRFSGSGSGTDFTLSINSVESEDVADYYCQQSHGWPFTFGGGTKLEIERADAAPTVSIFPPSSEQLTSGGASVVCFLNNFYPKDINVKWKIDGSERQNGVLNSWTDQDSKDSTYSMSSTLTLTKDEYERHNSYTCEATHKTSTSPIVKSFNRNEC
# Biological target: T1, human CD2 on the surface of cells (MOLT-4 human T lymphoblast cells); primary human T-cells; primary human NK … (human, UniProt P06729 25-351)
# T1 sequence: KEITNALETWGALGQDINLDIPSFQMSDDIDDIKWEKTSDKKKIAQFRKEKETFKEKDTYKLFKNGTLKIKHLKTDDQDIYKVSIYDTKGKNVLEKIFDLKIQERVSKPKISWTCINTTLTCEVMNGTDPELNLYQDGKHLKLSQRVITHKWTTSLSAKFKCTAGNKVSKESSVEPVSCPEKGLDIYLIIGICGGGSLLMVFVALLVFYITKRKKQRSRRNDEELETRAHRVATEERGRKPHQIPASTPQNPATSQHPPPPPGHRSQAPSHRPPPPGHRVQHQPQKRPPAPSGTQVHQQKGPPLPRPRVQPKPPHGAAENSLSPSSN
# Assay: cell-based or functional assay
binder,measurement,value
B1,"viability of primary human NK cells after 4 days (CellTiter-Glo), in vitro NK-cell killing assay, IC50",5.2 pM
